Laboratory results from the supplement of paper PMC10065799, “High-throughput profiling of sequence recognition by tyrosine kinases and SH2 domains using bacterial peptide display” (eLife, 2023).

Columns and labels:
[1] = target: EPHB2 (UniProt P29323); test: phosphorylation enrichment, bacterial display (enrichment ratio); higher = better substrate or ligand; peptides without Tyr show the background
[2] = target: Jak2 (UniProt O60674); test: as above
[3] = target: Fyn (UniProt P06241); test: as above
Fyn, sequence (P06241 whole entry, looked up): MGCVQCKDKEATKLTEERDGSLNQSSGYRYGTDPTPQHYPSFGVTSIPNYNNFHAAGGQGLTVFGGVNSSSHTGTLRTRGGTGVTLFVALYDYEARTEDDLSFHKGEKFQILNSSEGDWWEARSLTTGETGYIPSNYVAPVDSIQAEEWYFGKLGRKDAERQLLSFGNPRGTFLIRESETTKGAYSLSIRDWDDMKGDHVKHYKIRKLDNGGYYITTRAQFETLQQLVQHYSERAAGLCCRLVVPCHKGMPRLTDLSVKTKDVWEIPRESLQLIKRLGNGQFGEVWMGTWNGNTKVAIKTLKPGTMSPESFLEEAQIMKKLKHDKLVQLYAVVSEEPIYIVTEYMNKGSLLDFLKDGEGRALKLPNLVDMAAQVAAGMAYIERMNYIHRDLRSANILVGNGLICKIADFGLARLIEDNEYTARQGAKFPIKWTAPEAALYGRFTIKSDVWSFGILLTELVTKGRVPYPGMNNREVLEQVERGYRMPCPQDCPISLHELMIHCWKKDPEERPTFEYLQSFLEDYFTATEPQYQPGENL

[4] = target: FGFR3 (UniProt P22607); test: as above
FGFR3, sequence (P22607 whole entry, looked up): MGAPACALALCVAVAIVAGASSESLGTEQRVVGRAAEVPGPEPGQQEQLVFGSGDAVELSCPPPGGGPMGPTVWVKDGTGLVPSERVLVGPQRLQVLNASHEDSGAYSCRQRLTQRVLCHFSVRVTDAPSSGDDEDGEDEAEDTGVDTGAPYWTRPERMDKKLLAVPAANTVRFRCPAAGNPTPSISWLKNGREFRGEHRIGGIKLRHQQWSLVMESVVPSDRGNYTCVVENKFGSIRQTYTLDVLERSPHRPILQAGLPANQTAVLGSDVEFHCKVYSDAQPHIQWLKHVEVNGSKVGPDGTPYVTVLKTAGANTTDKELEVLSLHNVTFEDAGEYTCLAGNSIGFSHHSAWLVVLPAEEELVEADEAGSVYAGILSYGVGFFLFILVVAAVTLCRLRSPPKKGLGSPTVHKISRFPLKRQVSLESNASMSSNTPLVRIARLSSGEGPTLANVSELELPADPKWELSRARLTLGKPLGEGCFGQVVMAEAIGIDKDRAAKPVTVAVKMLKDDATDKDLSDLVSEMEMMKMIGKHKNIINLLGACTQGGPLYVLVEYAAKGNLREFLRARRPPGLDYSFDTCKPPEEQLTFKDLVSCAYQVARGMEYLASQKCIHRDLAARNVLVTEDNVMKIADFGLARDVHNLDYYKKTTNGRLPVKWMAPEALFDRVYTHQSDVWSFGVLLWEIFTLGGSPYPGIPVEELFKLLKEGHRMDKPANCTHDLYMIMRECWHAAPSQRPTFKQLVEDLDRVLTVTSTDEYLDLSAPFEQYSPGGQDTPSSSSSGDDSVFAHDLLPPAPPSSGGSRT

[5] = system: c-Src; test: as above
[6] = target: FGFR1 (UniProt P11362); test: as above
[7] = target: Hck (UniProt P08631); test: as above
Hck, sequence (P08631 whole entry, looked up): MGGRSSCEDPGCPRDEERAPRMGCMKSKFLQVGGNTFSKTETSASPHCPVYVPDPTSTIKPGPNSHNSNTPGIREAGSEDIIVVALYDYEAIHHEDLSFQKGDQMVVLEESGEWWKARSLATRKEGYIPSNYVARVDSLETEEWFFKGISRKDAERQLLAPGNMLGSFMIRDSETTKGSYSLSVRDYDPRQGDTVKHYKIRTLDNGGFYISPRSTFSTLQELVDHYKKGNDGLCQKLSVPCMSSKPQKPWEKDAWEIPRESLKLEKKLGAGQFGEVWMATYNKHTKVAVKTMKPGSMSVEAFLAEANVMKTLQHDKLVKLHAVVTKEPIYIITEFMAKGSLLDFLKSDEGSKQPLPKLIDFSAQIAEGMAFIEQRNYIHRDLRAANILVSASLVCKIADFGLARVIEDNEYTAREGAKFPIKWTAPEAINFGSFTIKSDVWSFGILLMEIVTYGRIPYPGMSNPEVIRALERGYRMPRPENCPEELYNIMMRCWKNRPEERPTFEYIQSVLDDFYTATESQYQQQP

[8] = system: c-Abl (mouse); test: as above
[9] = target: EPHB1 (UniProt P54762); test: as above
[10] = system: Fer (mouse); test: as above
[11] = system: AncSZ; test: as above
[12] = target: Fes (UniProt P07332); test: as above
Fes, sequence (P07332 whole entry, looked up): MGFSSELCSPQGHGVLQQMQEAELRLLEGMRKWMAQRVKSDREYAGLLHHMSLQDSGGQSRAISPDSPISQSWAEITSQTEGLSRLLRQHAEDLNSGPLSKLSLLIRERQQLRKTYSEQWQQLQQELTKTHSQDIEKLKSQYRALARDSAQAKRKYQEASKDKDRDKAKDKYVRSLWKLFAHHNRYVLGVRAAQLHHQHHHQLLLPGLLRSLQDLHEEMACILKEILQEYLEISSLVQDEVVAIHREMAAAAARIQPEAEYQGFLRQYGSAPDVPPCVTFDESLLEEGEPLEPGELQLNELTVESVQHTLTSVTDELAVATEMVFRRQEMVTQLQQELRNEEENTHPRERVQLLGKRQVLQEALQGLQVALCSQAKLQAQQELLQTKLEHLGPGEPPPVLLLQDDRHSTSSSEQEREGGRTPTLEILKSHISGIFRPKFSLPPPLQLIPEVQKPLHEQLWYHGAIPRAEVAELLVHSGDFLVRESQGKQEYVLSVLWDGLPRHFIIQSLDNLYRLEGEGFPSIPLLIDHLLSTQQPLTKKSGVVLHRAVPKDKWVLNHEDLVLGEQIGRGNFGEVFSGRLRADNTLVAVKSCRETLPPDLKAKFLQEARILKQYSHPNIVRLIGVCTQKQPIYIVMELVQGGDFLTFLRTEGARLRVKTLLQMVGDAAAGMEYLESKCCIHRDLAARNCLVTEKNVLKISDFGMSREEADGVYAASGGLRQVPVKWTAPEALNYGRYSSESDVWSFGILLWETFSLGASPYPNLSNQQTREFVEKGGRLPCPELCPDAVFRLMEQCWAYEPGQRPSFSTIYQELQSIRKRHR

[13] = target: MERTK (UniProt Q12866); test: as above
MERTK, sequence (Q12866 whole entry, looked up): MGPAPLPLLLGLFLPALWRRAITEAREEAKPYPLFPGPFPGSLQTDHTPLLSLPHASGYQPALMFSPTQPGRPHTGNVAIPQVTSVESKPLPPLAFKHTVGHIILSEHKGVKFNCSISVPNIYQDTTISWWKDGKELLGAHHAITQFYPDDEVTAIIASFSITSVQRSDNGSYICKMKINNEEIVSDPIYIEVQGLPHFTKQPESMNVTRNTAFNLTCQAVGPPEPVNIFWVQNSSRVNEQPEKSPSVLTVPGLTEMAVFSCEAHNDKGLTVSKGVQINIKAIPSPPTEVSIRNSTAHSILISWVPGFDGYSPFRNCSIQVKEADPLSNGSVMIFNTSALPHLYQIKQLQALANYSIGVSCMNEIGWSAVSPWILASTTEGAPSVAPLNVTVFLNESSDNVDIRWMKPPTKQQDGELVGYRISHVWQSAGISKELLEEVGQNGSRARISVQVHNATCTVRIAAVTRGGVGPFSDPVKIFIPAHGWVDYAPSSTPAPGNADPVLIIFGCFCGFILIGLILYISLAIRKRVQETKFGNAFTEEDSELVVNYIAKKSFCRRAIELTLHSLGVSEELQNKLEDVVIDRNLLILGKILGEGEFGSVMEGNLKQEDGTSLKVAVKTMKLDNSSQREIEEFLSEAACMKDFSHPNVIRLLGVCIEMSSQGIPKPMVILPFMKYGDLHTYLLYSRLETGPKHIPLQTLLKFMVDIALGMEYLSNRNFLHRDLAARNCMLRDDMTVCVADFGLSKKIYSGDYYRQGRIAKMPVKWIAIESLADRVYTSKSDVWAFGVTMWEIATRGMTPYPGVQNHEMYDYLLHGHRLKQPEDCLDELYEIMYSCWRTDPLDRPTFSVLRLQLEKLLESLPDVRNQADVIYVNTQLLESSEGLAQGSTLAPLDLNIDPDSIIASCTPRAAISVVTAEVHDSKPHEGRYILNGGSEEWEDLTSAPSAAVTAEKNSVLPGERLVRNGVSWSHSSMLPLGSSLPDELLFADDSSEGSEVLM

[14] = target: c-Src SH2; test: SH2 binding enrichment of the phosphorylated peptide, bacterial display (enrichment ratio); higher = better substrate or ligand; peptides without Tyr show the background
[15] = target: SHP2-C SH2; test: as above
[16] = target: Grb2 SH2 (UniProt P62993); test: as above
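Throughout, for SH2 binding enrichment of the phosphorylated peptide, bacterial display: peptide library displayed on the E. coli surface as eCPX fusions, selected cells deep-sequenced, score is each peptide's frequency after selection divided by its frequency in the input.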
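Throughout, for phosphorylation enrichment, bacterial display: 11-residue human phosphosite peptides and single-mutation variants displayed on the E. coli surface, counted by deep sequencing, each peptide's frequency after selection divided by its frequency in the unselected input library; frequency after pTyr selection over input frequency; kinase dosed for 20-30% of maximal phosphorylation in three min.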

Jak2, sequence (O60674 whole entry, looked up): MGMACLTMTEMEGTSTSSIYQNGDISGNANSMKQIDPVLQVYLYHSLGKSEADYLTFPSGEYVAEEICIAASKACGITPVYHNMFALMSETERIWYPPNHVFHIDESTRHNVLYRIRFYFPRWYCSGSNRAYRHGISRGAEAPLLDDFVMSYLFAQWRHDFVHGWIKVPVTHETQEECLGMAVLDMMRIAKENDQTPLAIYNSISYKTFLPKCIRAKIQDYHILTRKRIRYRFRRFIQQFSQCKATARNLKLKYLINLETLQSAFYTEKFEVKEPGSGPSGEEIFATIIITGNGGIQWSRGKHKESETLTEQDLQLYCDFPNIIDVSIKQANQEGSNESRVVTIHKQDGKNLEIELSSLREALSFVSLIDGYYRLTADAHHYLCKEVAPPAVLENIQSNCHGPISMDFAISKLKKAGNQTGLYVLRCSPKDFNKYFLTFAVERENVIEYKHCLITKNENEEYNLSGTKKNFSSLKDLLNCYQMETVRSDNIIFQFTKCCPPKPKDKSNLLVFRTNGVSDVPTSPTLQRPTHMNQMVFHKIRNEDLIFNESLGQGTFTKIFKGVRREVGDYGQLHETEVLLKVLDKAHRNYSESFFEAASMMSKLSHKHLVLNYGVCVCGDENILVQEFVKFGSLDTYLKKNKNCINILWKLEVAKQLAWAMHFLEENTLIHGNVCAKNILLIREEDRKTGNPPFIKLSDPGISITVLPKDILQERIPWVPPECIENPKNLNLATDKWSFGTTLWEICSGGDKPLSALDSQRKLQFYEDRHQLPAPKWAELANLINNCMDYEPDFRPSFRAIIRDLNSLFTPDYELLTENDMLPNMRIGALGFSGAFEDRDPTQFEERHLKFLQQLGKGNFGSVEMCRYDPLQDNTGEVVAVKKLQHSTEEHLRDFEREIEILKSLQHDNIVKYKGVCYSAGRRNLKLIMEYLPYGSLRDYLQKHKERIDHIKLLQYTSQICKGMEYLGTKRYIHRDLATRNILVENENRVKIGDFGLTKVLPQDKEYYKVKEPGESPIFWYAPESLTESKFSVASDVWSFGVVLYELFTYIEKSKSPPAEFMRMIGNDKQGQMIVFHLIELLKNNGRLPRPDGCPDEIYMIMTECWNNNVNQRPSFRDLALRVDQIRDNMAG

| Sequence | SH2 binding enrichment [14] | SH2 binding enrichment [15] | SH2 binding enrichment [16] | phosphorylation enrichment [1] | phosphorylation enrichment [2] | phosphorylation enrichment [3] | phosphorylation enrichment [4] | phosphorylation enrichment [5] | phosphorylation enrichment [6] | phosphorylation enrichment [7] | phosphorylation enrichment [8] | phosphorylation enrichment [9] | phosphorylation enrichment [10] | phosphorylation enrichment [11] | phosphorylation enrichment [12] | phosphorylation enrichment [13] |
| --- | --- | --- | --- | --- | --- | --- | --- | --- | --- | --- | --- | --- | --- | --- | --- | --- |
| CTHDLYMFMRE [FGFR3_Y724_I726F] | 0.436 | 0.636 | 0.71 | 1.04 | 1.34 | 0.584 | 1.45 | 2.37 | 1.76 | 1.06 | 0.992 | 2.23 | 0.994 | 1.43 | 1.56 | 1.9 |
| DDPRRYQKYGY [OAS1_Y362] | 0.894 | 1.3 | 1.05 | 0.544 | 0.507 | 0.426 | 0.446 | 0.438 | 0.414 | 0.499 | 0.592 | 0.368 | 0.403 | 0.598 | 0.591 | 0.368 |
| GFQPDYGQPAG [SYP_Y278_YF] | 0.56 | 0.519 | 0.836 | 0.431 | 0.554 | 0.435 | 0.483 | 0.294 | 0.478 | 0.728 | 0.509 | 0.443 | 0.206 | 0.583 | 0.686 | 0.404 |
| IDDNEYAYLKA [HNF4A_Y286] | 0.467 | 0.545 | 0.863 | 0.601 | 0.849 | 0.564 | 0.868 | 0.677 | 1 | 0.707 | 0.571 | 0.507 | 0.507 | 1.24 | 0.991 | 0.423 |
| THEVRYISAGQ [SLCO4A1_Y77_V78I] | 0.495 | 0.65 | 0.726 | 0.396 | 0.669 | 0.391 | 0.53 | 0.418 | 0.361 | 0.416 | 0.838 | 0.426 | 0.379 | 0.683 | 0.705 | 0.408 |
| AVISVYDLVAF [PSEN1_Y256_V261F] | 0.796 | 0.837 | 0.912 | 9.61 | 1.08 | 8.21 | 0.893 | 5.87 | 0.72 | 7.4 | 0.887 | 9.68 | 16 | 1.37 | 2.23 | 8.85 |
| LLKAKYELLNA [POLR3A_Y714] | 1.95 | 0.444 | 0.964 | 0.491 | 0.707 | 0.466 | 0.493 | 0.405 | 0.423 | 0.496 | 0.544 | 0.454 | 0.423 | 0.582 | 0.614 | 0.418 |
| SIKDKYLTALY [KCNH2_Y611_V612L] | 0.565 | 0.634 | 0.968 | 0.452 | 0.624 | 0.56 | 0.546 | 0.623 | 0.417 | 0.651 | 0.487 | 0.456 | 0.44 | 0.727 | 0.707 | 0.439 |

Now from value to sequence, other results behind:

| SH2 binding enrichment [14] | SH2 binding enrichment [15] | SH2 binding enrichment [16] | Sequence | phosphorylation enrichment [1] | phosphorylation enrichment [2] | phosphorylation enrichment [3] | phosphorylation enrichment [4] | phosphorylation enrichment [5] | phosphorylation enrichment [6] | phosphorylation enrichment [7] | phosphorylation enrichment [8] | phosphorylation enrichment [9] | phosphorylation enrichment [10] | phosphorylation enrichment [11] | phosphorylation enrichment [12] | phosphorylation enrichment [13] |
| --- | --- | --- | --- | --- | --- | --- | --- | --- | --- | --- | --- | --- | --- | --- | --- | --- |
| 2.27 | 1.11 | 18.2 | CLGNQYVNVMN [SLC3A1_Y461_R456C] | 0.608 | 1 | 0.403 | 0.955 | 0.437 | 0.567 | 0.448 | 0.689 | 0.588 | 0.475 | 1.11 | 1.05 | 0.336 |
| 1.38 | 0.72 | 0.781 | VFGVSYDEYRY [CFTR_Y512_I507V] | 0.465 | 0.761 | 0.802 | 0.604 | 1.31 | 0.434 | 0.712 | 0.566 | 0.538 | 0.453 | 1.01 | 0.959 | 0.477 |
| 0.435 | 0.74 | 0.726 | ADAGMYGVLPW [PLP1_Y207_R205G] | 6.53 | 0.637 | 9.65 | 0.529 | 6.61 | 0.549 | 9.1 | 3.07 | 1.76 | 2.39 | 0.803 | 0.845 | 6.35 |
| 0.39 | 0.291 | 0.604 | LEDDVYRKTCT [XPA_Y257_M256V] | 0.724 | 2.14 | 1 | 2.23 | 1.2 | 1.05 | 1.17 | 1.74 | 1.14 | 1.09 | 1.89 | 2.07 | 0.864 |
| 0.409 | 0.52 | 0.716 | SEHLTYLEFKS [RASGRP1_Y215] | 0.838 | 1.33 | 6.61 | 1.16 | 5.56 | 0.729 | 5.7 | 1.09 | 1.02 | 0.62 | 1.41 | 1.58 | 0.459 |
| 0.731 | 0.94 | 1.14 | ILTLKYPIELG [ACTA1_Y71_H75L] | 0.572 | 0.74 | 0.435 | 0.601 | 0.352 | 0.47 | 0.518 | 0.476 | 0.578 | 0.457 | 0.886 | 0.986 | 0.352 |
| 0.472 | 0.683 | 0.708 | EQLQSYQAEII [KRT33A_Y268] | 0.571 | 1.15 | 0.516 | 0.821 | 0.555 | 0.54 | 0.518 | 0.988 | 0.524 | 0.526 | 1.12 | 1.16 | 0.45 |
| 11 | 0.666 | 0.856 | EKQARYEIVVE [CDH5_Y223] | 0.57 | 0.846 | 0.433 | 0.532 | 0.477 | 0.392 | 0.486 | 0.613 | 0.65 | 0.466 | 0.909 | 0.852 | 0.484 |
